In US20260008852A1 (CRYSTAL BIOSCIENCE, published 2026):

T1: B7-H3 on B7-H3-expressing CHO cells (Genescript) (UniProt Q5ZPR3 29-534, limits assumed)
T1 construct: whole, on cells; also called CHO-K1/B7-H3; MFI B7-H3
T1 sequence (looked up): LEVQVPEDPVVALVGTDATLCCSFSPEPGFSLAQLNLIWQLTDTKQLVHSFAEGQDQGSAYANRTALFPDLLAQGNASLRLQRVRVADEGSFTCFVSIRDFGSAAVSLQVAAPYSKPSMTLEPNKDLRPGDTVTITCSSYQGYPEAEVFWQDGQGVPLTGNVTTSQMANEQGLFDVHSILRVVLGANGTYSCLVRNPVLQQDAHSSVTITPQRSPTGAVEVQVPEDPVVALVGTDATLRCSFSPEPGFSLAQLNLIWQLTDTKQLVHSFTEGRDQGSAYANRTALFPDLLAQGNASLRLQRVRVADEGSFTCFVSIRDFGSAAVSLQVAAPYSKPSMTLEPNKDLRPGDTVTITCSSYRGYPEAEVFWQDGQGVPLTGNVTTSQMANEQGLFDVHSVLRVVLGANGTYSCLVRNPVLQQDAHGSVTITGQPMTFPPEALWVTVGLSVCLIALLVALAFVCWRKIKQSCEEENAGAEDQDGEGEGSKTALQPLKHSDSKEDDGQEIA

T2: His-tagged cynomolgus monkey B7-H3 (cynomolgus monkey)
T2 chain: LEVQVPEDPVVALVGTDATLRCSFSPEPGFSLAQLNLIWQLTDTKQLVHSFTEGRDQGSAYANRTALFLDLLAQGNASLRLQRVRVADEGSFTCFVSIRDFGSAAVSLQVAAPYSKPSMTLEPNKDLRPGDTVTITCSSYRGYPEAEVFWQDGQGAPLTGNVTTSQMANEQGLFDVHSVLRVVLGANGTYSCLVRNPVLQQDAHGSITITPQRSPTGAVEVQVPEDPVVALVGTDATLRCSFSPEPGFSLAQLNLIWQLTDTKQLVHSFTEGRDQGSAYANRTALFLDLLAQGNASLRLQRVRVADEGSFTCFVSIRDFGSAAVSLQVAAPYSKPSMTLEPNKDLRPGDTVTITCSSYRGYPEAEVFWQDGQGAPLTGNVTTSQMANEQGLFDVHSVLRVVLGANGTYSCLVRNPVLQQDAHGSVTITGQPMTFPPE

T3: His-tagged human B7-H3 (human, UniProt Q5ZPR3-2 29-245, limits assumed)
T3 construct: Bought His-tagged protein coated on the ELISA plate; also called hu B7-H3; CD276
T3 sequence (looked up): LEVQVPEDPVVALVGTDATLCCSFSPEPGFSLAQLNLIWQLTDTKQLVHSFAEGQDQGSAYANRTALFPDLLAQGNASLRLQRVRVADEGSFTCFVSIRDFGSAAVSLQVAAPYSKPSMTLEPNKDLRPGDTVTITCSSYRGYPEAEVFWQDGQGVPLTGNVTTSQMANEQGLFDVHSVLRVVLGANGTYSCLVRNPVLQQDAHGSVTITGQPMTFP

T4: His-tagged mouse B7-H3 (mouse, UniProt Q8VE98 29-244, limits assumed)
T4 construct: Bought His-tagged protein coated on the ELISA plate; also called mu B7-H3; murine B7-H3
T4 sequence (looked up): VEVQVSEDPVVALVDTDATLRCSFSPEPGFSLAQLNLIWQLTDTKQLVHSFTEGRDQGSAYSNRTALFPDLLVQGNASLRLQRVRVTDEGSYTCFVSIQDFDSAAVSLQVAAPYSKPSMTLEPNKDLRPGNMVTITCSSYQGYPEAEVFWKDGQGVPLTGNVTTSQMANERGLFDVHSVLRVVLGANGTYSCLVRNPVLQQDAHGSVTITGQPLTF


Key:
[1] = molecular target: T1, B7-H3 on B7-H3-expressing CHO cells …; assay: flow cytometry, B7-H3-expressing CHO cells, 10 ug/ml
Description: Binding of anti-B7-H3 antibodies to cell lines was assessed by flow cytometry. Briefly, approximately 1.5 e5 B7-H3-expressing CHO cells (Genescript) or parent CHO cells (ATCC) were resuspended in FACS buffer (PBS/1% BSA/0.01% NaN3) containing 10 μg/ml of anti-B7-H3 antibodies and incubated for 60 min on ice. […] Cells were then washed twice, resuspended in FACS buffer, and read on an Attune Flow Cytometer (Life Technologies). Data are expressed as Mean Fluorescent Intensities (MFI).

[2] = molecular target: T2, His-tagged cynomolgus monkey B7-H3; assay: ELISA, coated His-tagged antigen, scFv-Fc 1 ug/ml
Description: (§1) The variable regions of heavy and light chains were cloned and assembled into a single chain Fv-Fc (ScFv-Fc) mammalian expression vector. Sanger sequencing was performed by GeneWiz and sequences were evaluated using DNASTAR Lasergene 15. Unique scFv-Fes were transiently expressed in Expi293 cells (Life Technologies, #A14527) grown in Expi293 Expression Medium (Life Technologies, #A1435101) after transfection using the ExpiFectamine transfection reagent and supplements (Life Technologies, #A14524). Cells were incubated for 3-5 days with shaking at 37° C. in a 5% CO2 humidified incubator.

His-tagged human B7-H3 [3] = molecular target: T3, His-tagged human B7-H3; assay: ELISA, coated His-tagged antigen, scFv-Fc 1 ug/ml
Description: as §1

His-tagged mouse B7-H3 = molecular target: T4, His-tagged mouse B7-H3; assay: ELISA, coated His-tagged antigen, scFv-Fc 1 ug/ml
Description: as §1

His-tagged human B7-H3 [4] = molecular target: T3, His-tagged human B7-H3; assay: ELISA OD450 on hu B7-H3 over OD450 on mu B7-H3
Description: as §1

Binder | MFI @ 10 ug/ml [1] [MFI] | ELISA OD450 @ 1 ug/ml [2] [OD450] | ELISA OD450 @ 1 ug/ml (His-tagged human B7-H3 [3]) [OD450] | ELISA OD450 @ 1 ug/ml (His-tagged mouse B7-H3) [OD450] | hu:mu ratio (His-tagged human B7-H3 [4])
40633p1.1.A6 (scFv, V domains shown, Tested as scFv-Fc (Expi293 supernatant)) VH: EVQLLESGGGLVQPGGSLRLSCAASGFSFSNYDMSWVRQAPGKGLEWVAGIRSGSRTYYADSVKGRFTISRDNSKNTLYLQMNSLRAEDTATYYCGRYFNMDVWGQGTTVTVSS VL: QSVLTQPPSASGTPGQRVTISCSGSTFNIGTNLVHWYQQLPGTAPKLLIYLTDRRPSGVPDRFSGSKSGTSASLAISGLQSEDEANYYCATWDDSLNSFLFGGGTKLTVL | 67800 | 1.62 | 1.88 | 1.26 | 1.49
40633p1.2.E11 (scFv, V domains shown, Tested as scFv-Fc (Expi293 supernatant)) VH: EVQLLESGGGLVQPGGSLRLSCAASGFSFSNYDMSWVRQAPGKGLEWVAGIRSGSRTYYADSVKGRFTISRDNSKNTLYLQMNSLRAEDTATYYCGRYFNMDVWGQGTTVTVSS VL: QSVLTQPPSASGTPGQRVTISCSGSTFNIGTNLVHWYQQLPGTAPKLLIYLTDRRPPGVPDRFSGSKSGTSASLAISGLQSEDEANYYCATWDDSLNSFLFGGGTKLTVL | 81300 | 2.14 | 2.09 | 1.4 | 1.5
40633p1.1.A11 (scFv, V domains shown, Tested as scFv-Fc (Expi293 supernatant)) VH: EVQLLESGGDLVQPGGSLRLSCAASGFTFNTYWMNWVRQAPGKGLEWVAGINSKGGVTYYADSVKGRFTISRDNSKNTLYLQMNSLRAEDTAVYYCADWNDYDIMDVWGQGTTVTVSS VL: QSVLTQPPSASGTPGQTITISCSGSSSNVGRRTVNWYQQLPGTAPKLLIYTNAQRPSGVPDRFSGSKSGTSASLAISGLQSEDEADYYCATWDDSLNAWVFGGGTKLTVL | 64800 | 1.77 | 2.08 | 1.27 | 1.63
40633p1.2.C11 (scFv, V domains shown, Tested as scFv-Fc (Expi293 supernatant)) VH: EVQLLESGGGLVQPGGSLRLSCAASGFTFSSYWMSWVRQAPGKGLEWVAGINRNGGSTYYADSVKGRFTISRDNSENTLYLQVNSLRAEDTAVYYCARWNDYDIMDVWGQGTTVTVSS VL: QSVLTQPSSASGTPGQRVTISCSGSSSNVGRRAVNWYQQLPGTAPKLLISNSQRPSGVPDRFSGSKSGTSASLAISGLQSEDEADYYCATWDASLNSWVFGGGTKLTVL | 18300 | 0.045 |  |  | 
40511p1.1.A1 (scFv, V domains shown, Tested as scFv-Fc (Expi293 supernatant)) VH: DVQLVESGGGVVRPGESLRLSCAASGFTFSNYAMNWVRQAPGEGLEWVSRINYKGYNITYYADSVKGRFTISRDNSKNTLYLQMNSLRAEDTAVYYCAKSGSNSNNFFDYWGLGTLVTVSS VL: EIVLTQSPGTLSVSPGERATLSCRASQSVNSKLAWYQQRPGQAPRLLIYDASSRATGIPDRFSGSGSGTDFTLTISRLEPEDFAVYYCQQYKNWPPLTFGGGTKVEIK | 34100 | 2.27 | 1.9 | 1.02 | 1.87
40579p1.F7 (scFv, V domains shown, Tested as scFv-Fc (Expi293 supernatant)) VH: EVQLLESGGGLVQPGGSLRLSCAASGFTFSDYYMSWVRQAPGKGLEWVSGISISYGGNAYYADSVKGRFTVSRDNSKNTLYLQMNSLRAEDTAVYYCGRDRSPYQYRSMDVWGQGTTVTVSS VL: EIVLTQSPGTLSLSPGERATLTCRASQSVGDFLAWYQQKPGQAPRLLIYGASTRAAGIPARFRGSGSGTDFTLTISSLQSEDFAVYYCQQYKNWPPLTFGGGTKVEIK | 64500 | 2.28 | 2.02 | 1.53 | 1.32
40579p1.H6 (scFv, V domains shown, Tested as scFv-Fc (Expi293 supernatant)) VH: EVQLLESGGGLVQPGGSLRLSCAASGFTVNNAWMSWVRQAPGKGLEWVSAISYGGSIYYADSVKGRFTISRDNSKNTLYLQMNSLRAEDTAVYYCAKHRSTTYNGMDVWGQGTTVTVSS VL: EIVLTQSPGTLSLSPGERATLSCRASQSVGSFLAWYQQKPGQAPRLLIYGANTRAAGIPDRFRGSGNGTDFTLTISSLQSEDFAVYYCQQYYDWPPLTFGGGTKVEIK | 67600 | 1.7 | 1.49 | 1.17 | 1.28
40579p1.E5 (scFv, V domains shown, Tested as scFv-Fc (Expi293 supernatant)) VH: EVQLLESGGGLVQPGGSLRLSCAASGFTFSDDWMTWVRQAPGKGLEWVSAINWNGNSTHYADSVKGRFTVSRDNSKNTLYLQMNSLRAEDTAVYYCAKSRTTYYSSMDVWGQGTTVTVSS VL: EIVLTQSPGTLSLSPGERATLSCRASQTVGSYLAWYQQKPGQAPRLLIYGASSRATGIPARFSGSGSGTDFTLTISSLQSEDFAVYYCQHYYDWPPYSFGGGTKVEIK | 89200 | 2.17 | 1.95 | 1.44 | 1.36
40579p1.G1 (scFv, V domains shown, Tested as scFv-Fc (Expi293 supernatant)) VH: EVQLLESGGGLVQPGGSLRLSCAASGFNFSSYWMSWVRQAPGKGLEWVSGISISYGGNAYYADSVKGRFTVSRDNSKNTLYLQMNSLRAEDTAVYYCGRDRSPYQYRSMDVWGQGTTVTVSS VL: EIVLTQSPGTLSLSPGERATLSCRASQSIRSDLAWYQQKPGQAPRLLIYGASSRATGIPARFSGSGSGTEFTLTISSLQSEDFAVYYCQQYNNWPPLTFGGGTKVEIK | 87100 | 1.73 | 1.73 | 1.79 | 0.966
40579p1.H7 (scFv, V domains shown, Tested as scFv-Fc (Expi293 supernatant)) VH: EVQLLESGGDLVQPGGSLRLSCAASGFNFSSYWMSWVRQAPGKGLEWVSGISISYGGNAYYADSVKGRFTVSRDNSKNTLYLQMNSLRAEDTAVYYCGRDRSPYQYRSMDVWGQGTTVTVSS VL: EIVLTQSPGTLSLSPGERATLSCRASQSIRSDLAWYQQKPGQAPRLLIYGASSRATGIPARFSGSGSGTEFTLTISSLQSEDFAVYYCQQYNNWPPLTFGGGTKVEIK | 74600 | 1.73 | 1.86 | 1.92 | 0.971
40633p1.2.A10 (scFv, V domains shown, Tested as scFv-Fc (Expi293 supernatant)) VH: EVQLLESGGGLVQPGGSLRLSCAASGFTVSYYGMSWVRQAPGKGLEWVSVIKQDGSEEYYADSVKGRFTISRDNSKNTLYLQMNSLRAEDTAVYYCARHWNDYSNGMNVWGQGTTVTVSS VL: QSVLTQPPSASGTPGQRVTISCSGSTSNVGDRYVYWYQQLPGTAPKLLIYLDDQRPSGVPDRFSGSKSGTSASLAISGLQSEDEADYYCASWDASLNGWVFGGGTKLTVL | 63500 | 2.14 | 2.14 | 2.02 | 1.06
